Consider 4 molecules from patent US12679878B2, “CRF2 receptor agonists and their use in therapy” (SANOFI, priority 2020, dated 2026).

Starred links: 1 amine or outer side, 2 acyl side, 3 side chain; linkers in the order of their positions; H or OH if unused. Non-standard residues stand in square brackets, D forms with d. Groups on a side chain read outwards from the residue. No end group written: not given here. *: point of attachment. γGlu = O=C(O)[C@H](CCC(=O)[*:2])N[*:1]; Palmitoyl = CCCCCCCCCCCCCCCC(=O)*; AEEA = NCCOCCOCC(=O)O; Aib = CC(C)(N)C(=O)O

The assay addresses human corticotropin-releasing factor 2α (CRF2α receptor) (human), Q13324. The experiment in a line: cell-based or functional assay.

B1: peptide of SEQ ID NO: 210 (peptide)
peptide: IVLSLD[dV]PIKLK([AEEA-AEEA-γGlu-Palmitoyl])QILLKQERQKK[Aib]RQKAEKNKQILAQV-NH2
modifications: N-terminus assumed
SMILES: CCCCCCCCCCCCCCCC(=O)N[C@@H](CCC(=O)NCCOCCOCC(=O)NCCOCCOCC(=O)NCCCC[C@H](NC(=O)[C@H](CC(C)C)NC(=O)[C@H](CCCCN)NC(=O)[C@@H](NC(=O)[C@@H]1CCCN1C(=O)[C@H](NC(=O)[C@H](CC(=O)O)NC(=O)[C@H](CC(C)C)NC(=O)[C@H](CO)NC(=O)[C@H](CC(C)C)NC(=O)[C@@H](NC(=O)[C@@H](N)[C@@H](C)CC)C(C)C)C(C)C)[C@@H](C)CC)C(=O)N[C@@H](CCC(N)=O)C(=O)N[C@H](C(=O)N[C@@H](CC(C)C)C(=O)N[C@@H](CC(C)C)C(=O)N[C@@H](CCCCN)C(=O)N[C@@H](CCC(N)=O)C(=O)N[C@@H](CCC(=O)O)C(=O)N[C@@H](CCCNC(=N)N)C(=O)N[C@@H](CCC(N)=O)C(=O)N[C@@H](CCCCN)C(=O)N[C@@H](CCCCN)C(=O)NC(C)(C)C(=O)N[C@@H](CCCNC(=N)N)C(=O)N[C@@H](CCC(N)=O)C(=O)N[C@@H](CCCCN)C(=O)N[C@@H](C)C(=O)N[C@@H](CCC(=O)O)C(=O)N[C@@H](CCCCN)C(=O)N[C@@H](CC(N)=O)C(=O)N[C@@H](CCCCN)C(=O)N[C@@H](CCC(N)=O)C(=O)N[C@H](C(=O)N[C@@H](CC(C)C)C(=O)N[C@@H](C)C(=O)N[C@@H](CCC(N)=O)C(=O)N[C@H](C(N)=O)C(C)C)[C@@H](C)CC)[C@@H](C)CC)C(=O)O
B1 gave an EC50 [nM], 0% HSA (cAMP, HTRF) of 2.98 nM.

B2: peptide of SEQ ID NO: 211 (peptide)
peptide: IVLSLD[dV]PIKLK([AEEA-AEEA-γGlu-γGlu-Palmitoyl])QILLKQERQKK[Aib]RQKAEKNKQILAQV-NH2
modifications: N-terminus assumed
SMILES: CCCCCCCCCCCCCCCC(=O)N[C@@H](CCC(=O)N[C@@H](CCC(=O)NCCOCCOCC(=O)NCCOCCOCC(=O)NCCCC[C@H](NC(=O)[C@H](CC(C)C)NC(=O)[C@H](CCCCN)NC(=O)[C@@H](NC(=O)[C@@H]1CCCN1C(=O)[C@H](NC(=O)[C@H](CC(=O)O)NC(=O)[C@H](CC(C)C)NC(=O)[C@H](CO)NC(=O)[C@H](CC(C)C)NC(=O)[C@@H](NC(=O)[C@@H](N)[C@@H](C)CC)C(C)C)C(C)C)[C@@H](C)CC)C(=O)N[C@@H](CCC(N)=O)C(=O)N[C@H](C(=O)N[C@@H](CC(C)C)C(=O)N[C@@H](CC(C)C)C(=O)N[C@@H](CCCCN)C(=O)N[C@@H](CCC(N)=O)C(=O)N[C@@H](CCC(=O)O)C(=O)N[C@@H](CCCNC(=N)N)C(=O)N[C@@H](CCC(N)=O)C(=O)N[C@@H](CCCCN)C(=O)N[C@@H](CCCCN)C(=O)NC(C)(C)C(=O)N[C@@H](CCCNC(=N)N)C(=O)N[C@@H](CCC(N)=O)C(=O)N[C@@H](CCCCN)C(=O)N[C@@H](C)C(=O)N[C@@H](CCC(=O)O)C(=O)N[C@@H](CCCCN)C(=O)N[C@@H](CC(N)=O)C(=O)N[C@@H](CCCCN)C(=O)N[C@@H](CCC(N)=O)C(=O)N[C@H](C(=O)N[C@@H](CC(C)C)C(=O)N[C@@H](C)C(=O)N[C@@H](CCC(N)=O)C(=O)N[C@H](C(N)=O)C(C)C)[C@@H](C)CC)[C@@H](C)CC)C(=O)O)C(=O)O
As to B2, the EC50 [nM], 0% HSA (cAMP, HTRF) was found to be 0.94 nM.

B3: peptide of SEQ ID NO: 206 (peptide)
peptide: IVLSLD[dV]PIKLK([AEEA-AEEA-γGlu-γGlu-Palmitoyl])QILLKQERQK[Aib]QREQAEKNKQILAQV-NH2
modifications: N-terminus assumed
SMILES: CCCCCCCCCCCCCCCC(=O)N[C@@H](CCC(=O)N[C@@H](CCC(=O)NCCOCCOCC(=O)NCCOCCOCC(=O)NCCCC[C@H](NC(=O)[C@H](CC(C)C)NC(=O)[C@H](CCCCN)NC(=O)[C@@H](NC(=O)[C@@H]1CCCN1C(=O)[C@H](NC(=O)[C@H](CC(=O)O)NC(=O)[C@H](CC(C)C)NC(=O)[C@H](CO)NC(=O)[C@H](CC(C)C)NC(=O)[C@@H](NC(=O)[C@@H](N)[C@@H](C)CC)C(C)C)C(C)C)[C@@H](C)CC)C(=O)N[C@@H](CCC(N)=O)C(=O)N[C@H](C(=O)N[C@@H](CC(C)C)C(=O)N[C@@H](CC(C)C)C(=O)N[C@@H](CCCCN)C(=O)N[C@@H](CCC(N)=O)C(=O)N[C@@H](CCC(=O)O)C(=O)N[C@@H](CCCNC(=N)N)C(=O)N[C@@H](CCC(N)=O)C(=O)N[C@@H](CCCCN)C(=O)NC(C)(C)C(=O)N[C@@H](CCC(N)=O)C(=O)N[C@@H](CCCNC(=N)N)C(=O)N[C@@H](CCC(=O)O)C(=O)N[C@@H](CCC(N)=O)C(=O)N[C@@H](C)C(=O)N[C@@H](CCC(=O)O)C(=O)N[C@@H](CCCCN)C(=O)N[C@@H](CC(N)=O)C(=O)N[C@@H](CCCCN)C(=O)N[C@@H](CCC(N)=O)C(=O)N[C@H](C(=O)N[C@@H](CC(C)C)C(=O)N[C@@H](C)C(=O)N[C@@H](CCC(N)=O)C(=O)N[C@H](C(N)=O)C(C)C)[C@@H](C)CC)[C@@H](C)CC)C(=O)O)C(=O)O
For B3, the EC50 [nM], 0% HSA (cAMP, HTRF) worked out at 0.09 nM.

B4: peptide of SEQ ID NO: 205 (peptide)
peptide: IVLSLD[dV]PIKLK([AEEA-AEEA-γGlu-Palmitoyl])QILLKQERQK[Aib]QREQAEKNKQILAQV-NH2
modifications: N-terminus assumed
SMILES: CCCCCCCCCCCCCCCC(=O)N[C@@H](CCC(=O)NCCOCCOCC(=O)NCCOCCOCC(=O)NCCCC[C@H](NC(=O)[C@H](CC(C)C)NC(=O)[C@H](CCCCN)NC(=O)[C@@H](NC(=O)[C@@H]1CCCN1C(=O)[C@H](NC(=O)[C@H](CC(=O)O)NC(=O)[C@H](CC(C)C)NC(=O)[C@H](CO)NC(=O)[C@H](CC(C)C)NC(=O)[C@@H](NC(=O)[C@@H](N)[C@@H](C)CC)C(C)C)C(C)C)[C@@H](C)CC)C(=O)N[C@@H](CCC(N)=O)C(=O)N[C@H](C(=O)N[C@@H](CC(C)C)C(=O)N[C@@H](CC(C)C)C(=O)N[C@@H](CCCCN)C(=O)N[C@@H](CCC(N)=O)C(=O)N[C@@H](CCC(=O)O)C(=O)N[C@@H](CCCNC(=N)N)C(=O)N[C@@H](CCC(N)=O)C(=O)N[C@@H](CCCCN)C(=O)NC(C)(C)C(=O)N[C@@H](CCC(N)=O)C(=O)N[C@@H](CCCNC(=N)N)C(=O)N[C@@H](CCC(=O)O)C(=O)N[C@@H](CCC(N)=O)C(=O)N[C@@H](C)C(=O)N[C@@H](CCC(=O)O)C(=O)N[C@@H](CCCCN)C(=O)N[C@@H](CC(N)=O)C(=O)N[C@@H](CCCCN)C(=O)N[C@@H](CCC(N)=O)C(=O)N[C@H](C(=O)N[C@@H](CC(C)C)C(=O)N[C@@H](C)C(=O)N[C@@H](CCC(N)=O)C(=O)N[C@H](C(N)=O)C(C)C)[C@@H](C)CC)[C@@H](C)CC)C(=O)O
Turning to B4, the EC50 [nM], 0% HSA (cAMP, HTRF) was 0.32 nM.
